Results from patent US20150344570A1 (published 2015).

T1: FcgRIIaR (human, UniProt P12318 34-217)
T1 construct: extracellular domain; also called FcγRIIa R; FcγRIIa type R; not shown: His tag at the C terminus
T1 sequence (looked up): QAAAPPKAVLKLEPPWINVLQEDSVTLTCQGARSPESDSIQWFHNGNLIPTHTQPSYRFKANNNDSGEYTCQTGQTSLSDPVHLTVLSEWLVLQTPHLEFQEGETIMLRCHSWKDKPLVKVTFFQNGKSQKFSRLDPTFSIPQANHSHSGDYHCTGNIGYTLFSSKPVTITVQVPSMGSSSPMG

T2: FcgRIIaH (human, UniProt P12318 34-217)
T2 construct: extracellular domain; also called FcγRIIa H; FcγRIIa type H; not shown: His tag at the C terminus
T2 sequence (looked up): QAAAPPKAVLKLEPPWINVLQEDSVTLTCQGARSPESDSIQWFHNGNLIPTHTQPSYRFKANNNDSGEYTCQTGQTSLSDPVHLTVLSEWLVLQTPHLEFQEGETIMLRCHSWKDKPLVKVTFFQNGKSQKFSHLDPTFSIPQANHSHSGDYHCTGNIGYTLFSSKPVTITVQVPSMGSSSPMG

T3: FcgRIIb (human, UniProt P31994 43-217)
T3 construct: extracellular domain; also called FcγRIIb; 2b; not shown: His tag at the C terminus
T3 sequence (looked up): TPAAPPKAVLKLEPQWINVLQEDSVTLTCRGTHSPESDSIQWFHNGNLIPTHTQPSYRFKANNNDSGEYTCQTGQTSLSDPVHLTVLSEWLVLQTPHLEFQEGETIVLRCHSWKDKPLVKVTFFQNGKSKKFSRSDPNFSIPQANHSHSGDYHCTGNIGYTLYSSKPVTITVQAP


Tests used:
[1] = molecular target: T4, FcgRIa (human, UniProt P12314 16-292); experiment: SPR (Biacore), antibody captured, FcgR extracellular domain as analyte
T4 construct: extracellular domain; also called FcγRIa; FcγRI; not shown: His tag at the C terminus
T4 sequence (P12314 16-292): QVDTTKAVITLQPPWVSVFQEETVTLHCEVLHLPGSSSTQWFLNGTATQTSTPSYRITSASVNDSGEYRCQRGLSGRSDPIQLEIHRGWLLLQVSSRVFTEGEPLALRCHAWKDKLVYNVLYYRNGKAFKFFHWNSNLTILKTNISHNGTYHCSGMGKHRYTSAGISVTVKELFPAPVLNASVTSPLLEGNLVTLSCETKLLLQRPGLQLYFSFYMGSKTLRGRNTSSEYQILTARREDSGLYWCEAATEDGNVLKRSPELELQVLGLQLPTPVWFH
Method: (§1) Next, the amino acid at position 330 was examined. The A330M alteration has been introduced into H240-Hl076 of H240-Kn125/H240-Hl076/L73-k0. […] L73-k0 was used as the common antibody L chain. Binding of the produced variants to FcgRIa, FcgRIIaR, FcgRIIaH, FcgRIIb, FcgRIIIaF, and FcgRIIIaV was measured according to the method of Reference Example 8.
(§2) Analysis of interaction between objective antibody and the FcγR was carried out using Biacore T100 (GE Healthcare), Biacore T200, Biacore A100, and Biacore 4000. HBS-EP+ (GE Healthcare) was used as the running buffer, and the measurement temperature was set to 25° C. Chips produced by immobilizing the antigen peptide by the amine coupling method to a Series S sensor Chip CM5 (GE Healthcare), chips produced by allowing preliminarily biotinylated antigen peptides to interact with and immobilize onto a Series S Sensor Chip SA (certified) (GE Healthcare), chips produced by immobilizing Protein L (ACTIGEN, BioVision) to Series S Sencor Chip CM5 (GE Healthcare), or chips produced by immobilizing Protein A/G (Thermo Scientific) to Series S Sencor Chip CM5 (GE Healthcare) were used. Antibodies of interest were captured onto these chips, and allowed to interact to each FcγR diluted with running buffer. To regenerate and repeatedly use the chip, the antibodies captured onto the chip were washed off by reacting 10 mM glycine-HCl, pH 1.5.

[2] = molecular target: T1, FcgRIIaR; experiment: as above
Method: as §1, §2

[3] = molecular target: T2, FcgRIIaH; experiment: as above
Method: as §1, §2

[4] = molecular target: T3, FcgRIIb; experiment: as above
Method: as §1, §2

[5] = molecular target: T5, FcgRIIIaF (human, UniProt P08637 17-208); experiment: as above
T5 construct: extracellular domain; Polymorphic site after J. Clin. Invest; also called FcγRIIIa F; 3aF; not shown: His tag at the C terminus
T5 sequence (P08637 17-208): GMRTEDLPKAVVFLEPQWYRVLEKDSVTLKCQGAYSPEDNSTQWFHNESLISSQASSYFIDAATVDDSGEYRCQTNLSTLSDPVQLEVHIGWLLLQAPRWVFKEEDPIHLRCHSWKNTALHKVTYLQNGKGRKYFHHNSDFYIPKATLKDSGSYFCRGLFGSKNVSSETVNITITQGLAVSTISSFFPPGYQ
Method: as §1, §2

[6] = molecular target: T6, FcgRIIIaV (human, UniProt P08637 17-208); experiment: as above
T6 construct: extracellular domain; Polymorphic site after J. Clin. Invest; also called FcγRIIIa V; 3aV; not shown: His tag at the C terminus
T6 sequence (P08637 17-208 F176V limits assumed): as the sequence (P08637 17-208) above, with F160V counted along it
Method: as §1, §2

[7] = molecular target: T1, FcgRIIaR; experiment: SPR (Biacore); KD of H240-Kn033/H240-Hl033/L73-k0 divided by KD of the variant
Method: as §1, §2

[8] = molecular target: T2, FcgRIIaH; experiment: as above
Method: as §1, §2

[9] = molecular target: T3, FcgRIIb; experiment: as above
Method: as §1, §2

[10] = molecular target: T5, FcgRIIIaF; experiment: as above
Method: as §1, §2

[11] = molecular target: T6, FcgRIIIaV; experiment: as above
Method: as §1, §2

Kd [1]	Kd [2]	Kd [3]	Kd [4]	Kd [5]	Kd [6]	fold 2aR [7]	fold 2aH [8]	fold 2b [9]	fold 3aF [10]	fold 3aV [11]	Binder
0.066 nM	420 nM	140 nM	3900 nM	1.3 nM	0.26 nM	1.8 fold	3.7 fold	0.8 fold	223 fold	185 fold	H240-Kn125/H240-Hl076/L73-k0 (antibody, human IgG1, kappa, Template of the position 330 series) heavy 1: QDQLVQSGAEVKKPGASVKVSCKASGFNIKDTYIQWVRQAPGQGLEWMGRIDPLRKQTKYREKFEGRVTITADTSTNTAYMELSSLRSEDTAVYYCVRSGREFDYWGQGTLVTVSSASTKGPSVFPLAPSSKSTSGGTAALGCLVKDYFPEPVTVSWNSGALTSGVHTFPAVLQSSGLYSLSSVVTVPSSSLGTQTYICNVNHKPSNTKVDKKVEPKSCDKTHTCPPCPAPEYQWGPMVFLFPPKPKDTLMISRTPEVTCVVVDVSDEEPEVKFNWYVDGVEVHNAKTKPREEQYNATYRVVSVLTVLHQDWLNGKEYKCKVSNKALPAPIEKTISKAKGQPREPQVCTLPPSRDELTKNQVSLWCLVKGFYPSDIAVEWESNGQPENNYKTTPPVLDSDGSFFLYSKLTVDKSRWQQGNVFSCSVMHEALHNHYTQKSLSLSP heavy 2: QDQLVQSGAEVKKPGASVKVSCKASGFNIKDTYIQWVRQAPGQGLEWMGRIDPLRKQTKYREKFEGRVTITADTSTNTAYMELSSLRSEDTAVYYCVRSGREFDYWGQGTLVTVSSASTKGPSVFPLAPSSKSTSGGTAALGCLVKDYFPEPVTVSWNSGALTSGVHTFPAVLQSSGLYSLSSVVTVPSSSLGTQTYICNVNHKPSNTKVDKKVEPKSCDKTHTCPPCPAPELLGGPSVFLFPPKPKDTLMISRTPEVTCVVVDVSHEEPEVKFNWYVDGVEVHNAKTKPREEQYNSTYRVVSVLTVLHQDWLNGKEYKCKVSNDALPMPIEETISKAKGQPREPQVYTLPPSRCELTKNQVSLSCAVKGFYPSDIAVEWESNGQPENNYKTTPPVLDSDGSFFLVSKLTVDKSRWQQGNVFSCSVMHEALHNHYTQKSLSLSP light: DIQMTQSPSSLSASVGDRVTITCRASQDIHKYIAWYQQKPGQAPRLLIQYTSTLQPGVPSRFSGSGSGTDYTFTISSLQPEDIATYYCLQYEQLRTFGGGTKVEIKRTVAAPSVFIFPPSDEQLKSGTASVVCLLNNFYPREAKVQWKVDNALQSGNSQESVTEQDSKDSTYSLSSTLTLSKADYEKHKVYACEVTHQGLSSPVTKSFNRGEC
0.065 nM	650 nM	150 nM	6900 nM	4.1 nM	0.48 nM	1.1 fold	3.5 fold	0.5 fold	70.7 fold	100 fold	H240-Kn125/H240-Hl210/L73-k0 (antibody, human IgG1, kappa) heavy 1: QDQLVQSGAEVKKPGASVKVSCKASGFNIKDTYIQWVRQAPGQGLEWMGRIDPLRKQTKYREKFEGRVTITADTSTNTAYMELSSLRSEDTAVYYCVRSGREFDYWGQGTLVTVSSASTKGPSVFPLAPSSKSTSGGTAALGCLVKDYFPEPVTVSWNSGALTSGVHTFPAVLQSSGLYSLSSVVTVPSSSLGTQTYICNVNHKPSNTKVDKKVEPKSCDKTHTCPPCPAPEYQWGPMVFLFPPKPKDTLMISRTPEVTCVVVDVSDEEPEVKFNWYVDGVEVHNAKTKPREEQYNATYRVVSVLTVLHQDWLNGKEYKCKVSNKALPAPIEKTISKAKGQPREPQVCTLPPSRDELTKNQVSLWCLVKGFYPSDIAVEWESNGQPENNYKTTPPVLDSDGSFFLYSKLTVDKSRWQQGNVFSCSVMHEALHNHYTQKSLSLSP heavy 2: QDQLVQSGAEVKKPGASVKVSCKASGFNIKDTYIQWVRQAPGQGLEWMGRIDPLRKQTKYREKFEGRVTITADTSTNTAYMELSSLRSEDTAVYYCVRSGREFDYWGQGTLVTVSSASTKGPSVFPLAPSSKSTSGGTAALGCLVKDYFPEPVTVSWNSGALTSGVHTFPAVLQSSGLYSLSSVVTVPSSSLGTQTYICNVNHKPSNTKVDKKVEPKSCDKTHTCPPCPAPELLGGPSVFLFPPKPKDTLMISRTPEVTCVVVDVSHEEPEVKFNWYVDGVEVHNAKTKPREEQYNSTYRVVSVLTVLHQDWLNGKEYKCKVSNDALPAPIEETISKAKGQPREPQVYTLPPSRCELTKNQVSLSCAVKGFYPSDIAVEWESNGQPENNYKTTPPVLDSDGSFFLVSKLTVDKSRWQQGNVFSCSVMHEALHNHYTQKSLSLSP light: DIQMTQSPSSLSASVGDRVTITCRASQDIHKYIAWYQQKPGQAPRLLIQYTSTLQPGVPSRFSGSGSGTDYTFTISSLQPEDIATYYCLQYEQLRTFGGGTKVEIKRTVAAPSVFIFPPSDEQLKSGTASVVCLLNNFYPREAKVQWKVDNALQSGNSQESVTEQDSKDSTYSLSSTLTLSKADYEKHKVYACEVTHQGLSSPVTKSFNRGEC
0.08 nM	450 nM	150 nM	4400 nM	1.6 nM	0.38 nM	1.6 fold	3.5 fold	0.8 fold	181 fold	126 fold	H240-Kn125/H240-Hl214/L73-k0 (antibody, human IgG1, kappa) heavy 1: QDQLVQSGAEVKKPGASVKVSCKASGFNIKDTYIQWVRQAPGQGLEWMGRIDPLRKQTKYREKFEGRVTITADTSTNTAYMELSSLRSEDTAVYYCVRSGREFDYWGQGTLVTVSSASTKGPSVFPLAPSSKSTSGGTAALGCLVKDYFPEPVTVSWNSGALTSGVHTFPAVLQSSGLYSLSSVVTVPSSSLGTQTYICNVNHKPSNTKVDKKVEPKSCDKTHTCPPCPAPEYQWGPMVFLFPPKPKDTLMISRTPEVTCVVVDVSDEEPEVKFNWYVDGVEVHNAKTKPREEQYNATYRVVSVLTVLHQDWLNGKEYKCKVSNKALPAPIEKTISKAKGQPREPQVCTLPPSRDELTKNQVSLWCLVKGFYPSDIAVEWESNGQPENNYKTTPPVLDSDGSFFLYSKLTVDKSRWQQGNVFSCSVMHEALHNHYTQKSLSLSP heavy 2: QDQLVQSGAEVKKPGASVKVSCKASGFNIKDTYIQWVRQAPGQGLEWMGRIDPLRKQTKYREKFEGRVTITADTSTNTAYMELSSLRSEDTAVYYCVRSGREFDYWGQGTLVTVSSASTKGPSVFPLAPSSKSTSGGTAALGCLVKDYFPEPVTVSWNSGALTSGVHTFPAVLQSSGLYSLSSVVTVPSSSLGTQTYICNVNHKPSNTKVDKKVEPKSCDKTHTCPPCPAPELLGGPSVFLFPPKPKDTLMISRTPEVTCVVVDVSHEEPEVKFNWYVDGVEVHNAKTKPREEQYNSTYRVVSVLTVLHQDWLNGKEYKCKVSNDALPFPIEETISKAKGQPREPQVYTLPPSRCELTKNQVSLSCAVKGFYPSDIAVEWESNGQPENNYKTTPPVLDSDGSFFLVSKLTVDKSRWQQGNVFSCSVMHEALHNHYTQKSLSLSP light: DIQMTQSPSSLSASVGDRVTITCRASQDIHKYIAWYQQKPGQAPRLLIQYTSTLQPGVPSRFSGSGSGTDYTFTISSLQPEDIATYYCLQYEQLRTFGGGTKVEIKRTVAAPSVFIFPPSDEQLKSGTASVVCLLNNFYPREAKVQWKVDNALQSGNSQESVTEQDSKDSTYSLSSTLTLSKADYEKHKVYACEVTHQGLSSPVTKSFNRGEC
